Experiment: soluble on expression in E. coli; label from the status in PepcDB or PDB records

Soluble on expression in E. coli, not soluble:
GPGSMSALWARFTEKLKGSGYTLSDLVYCSEDTFLTLVANMNAFTPLQIASLAKEWQRSLSAAATPTATVSGSALPISRRHAESTRLSSSPVRSSALNRATLPATGAAETPPNHSTLSTALRKNSFVPPRRSPAKVKEEAEYLLTKLGAQSGAEYQVSLTEGIVAVEASPEAWGPLLDRVSRMHVTSHRDSAAAATPLATELQLLWKLCSPATLRKMEKACVSGAPFGLSNQDDADGLCSSAVVLYGKDATRLAAPAEELEQLFREGWGLVAFDVAVGKARTVTKEEAQDLNANLYRFSMEQCLEMLEEAGFDAFHIPSRNAVAVCHMHQLMPRFVVFVSTLEPVVVTRRLGDAVPAVGNGRPSRAPPAPAASPSPSAVAAAAAALPAARRSINGGDDVLVPASRSSRNSEDLQCAVHSKKTVEFWSPTEKRLLCSHCLYYDGYSQENCIPIEQAAREEAPRLERWVQNAITFSQEIKSVFDLFEAAQTDVSQTHKQVRSDIAHSFTRLRARLDALEANLQQQCQQKAQQNLQVLQDTLSRITATVQFVSEVVQDADEPVAAYRGGVADTNTCVALLRSAQRAFGAWEPVTISAYEDVRIVDGSALLQPVEEALKAVQSISSEAGKVQLPEAIDVNYLKSDCDV
MGSDKIHHHHHHMKVKIGDLTKIKTGKLDANVSSEDGKYPFFTCSKEPLKISTYSYDCECVLVAGNGDLNVKYYNGKFDAYQRTYIIEANGSGKLYMPYLYYFMEDYIDELRKQAIGGVIKYIKLANLTDALIELPSVDEQKSIVEILKKVKGILDKRNDEIRELDNLIKARFVEMFGDPRSNPFGFEKKRLKDTCKVITGNTPSRAIEEYYGDYIEWIKTDNIVSGILNPTQATESLSEKGMNVGRTVEKDSILMACIAGSIASIGRVCITDRTVAFNQQINAVVPEQYNILFLYVLFQMSKDYLVEDINMALKGILSKSKLEEKEFIIPPMDLQEQFSDFVKQVDKSKFDTMTFAPIYAIINLYLHTYFYQGRR
MGSDKIHHHHHHMNGKLQSSDVKNETPYNIPLLINENVISSGISLISLWHTYADEHYRVIWPRDKKKPLIANSWVAVYTVQGCGKILLKNGEQITLHSNCIIFLKPMDIHSYHCEGLVWEQYWMEFTPTSMMDIPVGQQSVIYNGEIYNQELTEVAELITSPEAIKNNLAVAFLTKIIYQWICLMSADGKKDPQRRQIEKLIATLHASLQQRWSVADMAATIPCSEAWLRRLFLRYTGKTPKEYYLDARLDLALSLLKQQGNSVGEVADTLNFFDSFHFSKAFKHKFGYAPSAVLKNTDQHPTDASPHN
MLQNRLNKARSHAEKHDVDAIVFFNMSNVRYLSGFTGSDGAVVLGRDASWFLTDSRYTTQASRQVVGLPTVEYRIKLDGITELVREQGFRRIGFESEHTAFAVYESLRQKLPKTELVPIGEELAQLRLIKDPSECELLSRVARLASEALLSILPLVKPGAVERELALELEFAMRRAGAENASFDFIVASGERGSLPHGRASDKALAAGELVTIDFGARYEGYCSDETVTVAVGVPDERQCQIYGIVKEAHDRAIAAVRPGAELREIDRIARGYIEEQGYGAFFGHGLGHGVGLDVHEKPVVSPRGEGVAAVGMVFTIEPGIYIPGWGGVRIEDTVIVTEDGCRPITMIPKELMIL
MLFHLPKLPAELRVSHLNARVNEQRKKIAQTTASKLEFLQLTQQLVKEAKIRKKNNQKIFVLDFKGDIQASAVDQLREEITLILATAKSGKDRVVLRLESPGGMVHGYGLAAAQLVRLRDAGFHLTIVVDKVAASGGYMMACIANEIVSAPFAILGSIGVVAQVPNFNRLLKEHNVDFELYTAGEYKRTVTMFGENTPEGKAKFEEELKQTHALFKHFVEKYRPQLNVEKVATGEHWYGQDALDLNLVDKLQTSDEYLLSLLPQHDVYVITTRKKPTLGERLGLQAAQLADSFIPAVMNKVVESLVNANSHLVQMRDPKILEHHHHHH
MRIALFTETFLPKIDGIVTRLCQTVRHLQRNGHQVLVVAPDGGLDHYEGARIYGVSGFPLPLYPELKLALPRPAIGKALAAFEPDLIHVANPAVLGLAGLYYAQKFQLPLVASYHTHLPQYLKYYGLGFLEELLWFLLRWGHNCAQLNLCTSTAMVAELKAHGIRHLDLWQRGVDVELFHPQRQSQEMRHFLSQGHPEAPLLLYVGRLSAEKEIEQIKPILEQIPQARLALVGNGPHREALEKHFAGTPTHFVGYLRGERLAGAFASADVFIFPSRTETLGLVLLEAMAAGCPVVAANSGGIPDIVTDGVNGFLFDPADPTGAITACQRLFDSPDDRETLRQNARQEAERWSWAAATQQLEQYYRSVLPVPQRDVALSHLEHHHHHH
